B1: P1AF6455 OX40(CLC563) x FAP(1G1a_EPKSCS) 3+1 (bispecific antibody, human IgG1, kappa, L234A L235A)
heavy 1: not shown
heavy 2: not shown
light 1: not shown
light 2: EIVLTQSPATLSLSPGERATLSCRASESVDNYGLSFINWFQQKPGQAPRLLIYGTSNRGSGIPARFSGSGSGTDFTLTISSLEPEDFAVYFCQQSNEVPYTFGGGTKVEIKSSASTKGPSVFPLAPSSKSTSGGTAALGCLVKDYFPEPVTVSWNSGALTSGVHTFPAVLQSSGLYSLSSVVTVPSSSLGTQTYICNVNHKPSNTKVDKKVEPKSCS
notes: Human IgG1 Fc, knob-into-hole, PGLALA; also called CLC-563, S-variant 3+1
B2: P1AF6454 OX40 (CLC563) x FAP (1G1a_EPKSCD) (3+1) C-terminal crossfab fusion (bispecific antibody, human IgG1, kappa, L234A L235A)
heavy 1: not shown
heavy 2: not shown
light 1: not shown
light 2: EIVLTQSPATLSLSPGERATLSCRASESVDNYGLSFINWFQQKPGQAPRLLIYGTSNRGSGIPARFSGSGSGTDFTLTISSLEPEDFAVYFCQQSNEVPYTFGGGTKVEIKSSASTKGPSVFPLAPSSKSTSGGTAALGCLVKDYFPEPVTVSWNSGALTSGVHTFPAVLQSSGLYSLSSVVTVPSSSLGTQTYICNVNHKPSNTKVDKKVEPKSCD
notes: 3+1 format; Human IgG1 Fc, knob-into-hole, PGLALA; VL-CH1 chain ends in EPKSCD; also called CLC-563, D-variant 3+1; 3+1 CLC563/H212-D

Legend:
[1] = molecular target: T1, human OX40 on the cell surface (activated human T cells; HeLa_hOx40_NFkB_Luc1 reporter cells) (human, UniProt P43489 29-277); assay: flow cytometry, activated human PBMC gated on CD4+ T cells
T1 construct: also called hu OX40; CD134
T1 sequence: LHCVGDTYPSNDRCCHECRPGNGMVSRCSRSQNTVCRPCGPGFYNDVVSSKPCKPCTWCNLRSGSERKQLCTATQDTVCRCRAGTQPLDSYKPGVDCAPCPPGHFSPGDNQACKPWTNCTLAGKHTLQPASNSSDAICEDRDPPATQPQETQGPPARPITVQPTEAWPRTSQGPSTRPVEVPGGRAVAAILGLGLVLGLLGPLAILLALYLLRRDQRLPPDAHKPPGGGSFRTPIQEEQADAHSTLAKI

[2] = molecular target: T2, human fibroblast activation protein (huFAP) on NIH/3T3-huFAP clone 19 cells (human, UniProt Q12884 1-760); assay: flow cytometry, NIH/3T3-huFAP clone 19 cells
T2 construct: Mouse NIH/3T3 fibroblasts transfected with vector pETR4921 to express huFAP; also called cell surface FAP
Experimental: In another experiment, a mixture of 2 × 10⁵ NIH/3T3-huFAP clone 19 cells and HeLa cells in FACS buffer were added to each well of a round-bottom 96-well plates (TPP, Cat. No. 92097) and the binding assay was performed. Cells were first stained 20 min with LIVE/DEAD™ Fixable Aqua Dead Cell Stain (Molecular probes, Cat.No. L34957) in DPBS, followed after one washing step with 200 µL 4° C. […] Afterwards the cells were washed once with 200 µL FACS buffer at 4° C. and resuspended by a short vortex. Cells were further stained with 50 µL/well of 4° C. cold secondary antibody solution containing Phycoerythrin (PE)-conjugated AffiniPure anti-human IgG Fcy-fragment-specific goat IgG F(ab′)2 fragment (Jackson ImmunoResearch, Cat. No. 109-116-098) and incubated for 30 minutes at 4° C. in the dark. Samples were finally resuspended in 100 µL/well FACS-buffer and acquired the same day using with BD Fortessa running FACS Diva software.

[3] = molecular target: T1, human OX40 on the cell surface …; assay: cell-based or functional assay
[4] = molecular target: T1, human OX40 on the cell surface …; assay: cell-based or functional assay; remark: listed apart in the source
[5] = molecular target: T1, human OX40 on the cell surface …; assay: cell-based or functional assay; remark: listed apart in the source
[6] = molecular target: T1, human OX40 on the cell surface …; assay: cell-based or functional assay; remark: listed apart in the source
[7] = molecular target: T3, FcRn (biotinylated, coupled to streptavidin-sepharose); assay: FcRn affinity chromatography; retention compared to protein standards with known affinities
T3 construct: also called neonatal Fc receptor
T3 sequence (P55899 24-297, chain 1 of 2): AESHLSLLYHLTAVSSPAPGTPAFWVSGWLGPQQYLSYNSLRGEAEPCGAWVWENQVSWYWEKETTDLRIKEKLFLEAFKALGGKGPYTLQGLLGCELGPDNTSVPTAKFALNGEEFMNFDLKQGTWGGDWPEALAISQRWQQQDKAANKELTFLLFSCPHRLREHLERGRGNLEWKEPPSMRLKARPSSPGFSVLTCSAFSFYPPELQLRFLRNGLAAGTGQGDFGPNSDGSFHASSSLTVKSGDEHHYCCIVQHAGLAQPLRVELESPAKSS
T3 sequence (P61769 21-119, chain 2 of 2, further chain): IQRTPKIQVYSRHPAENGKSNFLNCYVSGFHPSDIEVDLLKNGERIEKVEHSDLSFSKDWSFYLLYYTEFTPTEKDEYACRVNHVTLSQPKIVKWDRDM
Experimental: For coupling, the prepared receptor was added to streptavidin-sepharose (GE Healthcare). The resulting FcRn-sepharose matrix was packed in a column housing. The column was equilibrated with 20 mM 2-(N-morpholine)-ethanesulfonic acid (MES) and 140 mM NaCl, pH 5.5 (eluent A) at a 0.5 ml/min flow rate. 30 µg of antibody samples were diluted at a volume ratio of 1: 1 with eluent A and applied to the FcRn column. The column was washed with 5 column volumes of eluent A followed by elution with a linear gradient from 20 to 100% 20 mM Tris/HCl and 140 mM NaCl, pH 8.8 (eluent B) in 35 column volumes. The analysis was performed with a column oven at 25° C. The elution profile was monitored by continuous measurement of the absorbance at 280 nm. Retention times were compared to protein standards with known affinities.

| Binder | EC50 [1] [nM] | EC50 [2] [nM] | EC50 of suppression of FoxP3 induction (FoxP3 MFI) on TGFβ-exposed CD4 T cells, FAP-coated beads [3] [nM] | EC50 of NFκB activation (luciferase), HeLa_hOx40_NFkB_Luc1, w/ hu FAP [4] [nM] | EC50 of NFκB activation (luciferase), HeLa_hOx40_NFkB_Luc1, w/o [4] [nM] | EC50 of CD25 upregulation on CD4+ T cells, suboptimal TCR stimulation of human PBMC with NIH/3T3-huFAP cells [5] [pM] | EC50 of increased TCB mediated cytokine secretion following FAP-OX40 costimulation of primary human PBMCs [6] [nM] | FcRn affinity [7] |
| --- | --- | --- | --- | --- | --- | --- | --- | --- |
| B1 | 1.47 | 1.71 | 0.25 | 0.2 | 0.8 | 3 | 0.058 | -0.1 |
| B2 | 1.64 | 1.22 | 0.11 | 0.2 | 1.9 | 1 | 0.144 | -0.1 |

From patent US20230227584A1 (published 2023)
